Source: patent publication US20210214436A1 (DRAGONFLY THERAPEUTICS, published 2021)
Each block holds one binder with its values, some of them ahead of it.

Target: T1, BCMA expressed on myeloma cells (MM.1R, KMS12-PE) (human, UniProt Q02223 1-184)
T1 construct: Human multiple myeloma cell lines expressing BCMA; also called surface BCMA; MM.1R myeloma cells
T1 sequence: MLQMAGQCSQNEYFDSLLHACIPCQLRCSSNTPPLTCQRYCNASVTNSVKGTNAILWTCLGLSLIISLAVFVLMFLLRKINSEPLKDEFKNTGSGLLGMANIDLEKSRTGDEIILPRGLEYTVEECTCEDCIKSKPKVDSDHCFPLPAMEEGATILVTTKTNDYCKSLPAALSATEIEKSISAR
Assay: flow cytometry on MM.1R cells
Protocol: F4-TriNKETs were diluted, and were incubated with MM.1R cells. […] Cells were analyzed by flow cytometry, binding MFI to cell expressed BCMA was normalized to secondary antibody controls to obtain fold over background values.

binding result: binds
B1: A49-F4-TriNKET-BCMA (bispecific antibody, V domains shown)
VH 1: EVQLLESGGGLVQPGGSLRLSCAASGFTFSDNAMGWVRQAPGKGLEWVSAISGPGSSTYYADSVKGRFTISRDNSKNTLYLQMNSLRAEDTAVYYCAKVLGWFDYWGQGTLVTVSS
VL 1: EIVLTQSPGTLSLSPGERATLSCRASQSVSDEYLSWYQQKPGQAPRLLIHSASTRATGIPDRFSGSGSGTDFTLAISRLEPEDFAVYYCQQYGYPPDFTFGQGTKVEIK
VH 2: EVQLVESGGGLVKPGGSLRLSCAASGFTFSSYSMNWVRQAPGKGLEWVSSISSSSSYIYYADSVKGRFTISRDNAKNSLYLQMNSLRAEDTAVYYCARGAPMGAAAGWFDPWGQGTLVTVSS
VL 2: DIQMTQSPSSVSASVGDRVTITCRASQGISSWLAWYQQKPGKAPKLLIYAASSLQSGVPSRFSGSGSGTDFTLTISSLQPEDFATYYCQQGVSFPRTFGGGTKVEIK
notes: Only variable domains can be tied to the molecule

binding result: binds
B2: BCMA monoclonal antibody (EM-901) (antibody, V domains shown)
VH: B1 VH 1
VL: B1 VL 1
